Measurements taken from paper PMC10479434.

Tests used:
α-synuclein (wild type) [1] = biological target: α-synuclein (wild type) (UniProt P37840)
α-synuclein (wild type) [2] = biological target: α-synuclein (wild type) (UniProt P37840); remark: listed apart in the source

Chain of HtrA1ΔNTD (residues 156–480) (Q92743 156-480, stated change not applied): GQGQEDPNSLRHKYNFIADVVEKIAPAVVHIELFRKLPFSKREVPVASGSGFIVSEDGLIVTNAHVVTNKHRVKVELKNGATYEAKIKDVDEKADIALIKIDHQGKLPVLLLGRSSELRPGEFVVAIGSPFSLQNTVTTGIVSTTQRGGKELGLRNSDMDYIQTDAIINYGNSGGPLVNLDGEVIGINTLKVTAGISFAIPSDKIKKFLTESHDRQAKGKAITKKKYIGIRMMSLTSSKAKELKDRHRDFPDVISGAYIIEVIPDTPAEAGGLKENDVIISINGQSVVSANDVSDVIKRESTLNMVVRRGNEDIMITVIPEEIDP

With “HtrA1ΔNTD (residues 156–480) (from UniProt Q92743 156-480) (domain or fragment)” the sedimentation assay, α-syn (25 μM) with HtrA1 (5 μM), 24–72h: share of α-syn in the insoluble fraction (HtrA1 itself stays soluble with α-syn) (% of α-syn insoluble) (α-synuclein (wild type) [1]) was < 10 and the ThT fluorescence of α-syn (25 μM) fibrillized with HtrA1 (5 μM) for 48h, relative to the signal without HtrA1 (% of the ThT signal without HtrA1) (α-synuclein (wild type) [2]) was 20.
